{"source": "paper PMC6599135", "about": "“Atomic view into Plasmodium actin polymerization, ATP hydrolysis, and fragmentation” (PLoS Biology, 2019)", "proteins": {"B1": {"name": "Plasmodium falciparum actin I, wild type (natural protein)", "chain": "not shown", "notes": "Plasmodium falciparum actin I; His74 is not methylated in the recombinant protein; In the pyrene assay about 10% of the actin carried N-(1-pyrene)iodoacetamide; also called PfActI; P. falciparum actin I; source: insect cells, purified (Ni-NTA, TEV cleavage, second Ni-NTA, Superdex 200 gel filtration)"}}, "target": "the molecule itself", "assay": "negative-stain electron microscopy of polymerised samples; polymerised 16 h at 298 K at 20 uM in F buffer without jasplakinolide, diluted to 1 uM, stained with 2% uranyl acetate", "data": [{"protein": "B1", "values": [{"measurement": "binding result", "result": "binds"}]}]}
